In IntAct's records for PubMed 19070620:

Biological target: T1, rogf8_arath ROPGEF8 (UniProt Q9LV40)
T1 sequence: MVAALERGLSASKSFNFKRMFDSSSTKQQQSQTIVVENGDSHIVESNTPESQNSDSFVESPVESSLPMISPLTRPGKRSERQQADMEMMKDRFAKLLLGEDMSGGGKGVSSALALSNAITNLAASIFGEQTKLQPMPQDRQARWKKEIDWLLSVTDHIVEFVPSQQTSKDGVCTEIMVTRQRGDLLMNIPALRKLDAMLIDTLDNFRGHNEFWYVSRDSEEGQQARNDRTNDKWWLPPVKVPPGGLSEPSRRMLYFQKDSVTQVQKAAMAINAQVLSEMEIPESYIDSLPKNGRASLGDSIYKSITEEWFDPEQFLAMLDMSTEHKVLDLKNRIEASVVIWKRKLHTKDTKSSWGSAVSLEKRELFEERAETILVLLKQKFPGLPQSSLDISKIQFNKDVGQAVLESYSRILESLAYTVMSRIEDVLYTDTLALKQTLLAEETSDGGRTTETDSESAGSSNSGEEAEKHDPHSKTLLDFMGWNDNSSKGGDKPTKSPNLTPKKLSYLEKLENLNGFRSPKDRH

Ras-related C3 botulinum toxin substrate 1 (Homo sapiens) (from UniProt P63000) P73C
effect of a mutation on the interaction: increasing interaction
